Like-named read-outs stand apart in the source and are kept apart here.

For data set [1], the target named is T1, HERV-K reverse transcriptase (RT) (Human endogenous retrovirus K (Homo …, UniProt V9H0F6 1-596)).
T1 sequence: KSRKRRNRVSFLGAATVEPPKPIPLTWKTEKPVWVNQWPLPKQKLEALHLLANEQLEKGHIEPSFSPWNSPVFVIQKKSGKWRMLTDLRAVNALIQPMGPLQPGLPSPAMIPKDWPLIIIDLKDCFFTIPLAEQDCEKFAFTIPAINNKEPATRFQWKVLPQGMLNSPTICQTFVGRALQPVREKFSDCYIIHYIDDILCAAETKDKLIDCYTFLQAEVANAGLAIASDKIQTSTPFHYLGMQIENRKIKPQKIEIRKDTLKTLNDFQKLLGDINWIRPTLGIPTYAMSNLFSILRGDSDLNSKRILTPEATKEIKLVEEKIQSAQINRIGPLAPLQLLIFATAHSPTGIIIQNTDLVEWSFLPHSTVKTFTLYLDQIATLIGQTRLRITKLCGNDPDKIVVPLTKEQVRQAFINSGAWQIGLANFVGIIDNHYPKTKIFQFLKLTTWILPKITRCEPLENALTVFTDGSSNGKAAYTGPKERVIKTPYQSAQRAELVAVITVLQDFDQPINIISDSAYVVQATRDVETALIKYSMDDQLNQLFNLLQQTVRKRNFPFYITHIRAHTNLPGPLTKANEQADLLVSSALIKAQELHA
Briefly: X-ray crystallography.

The target of data set [2] is T1, HERV-K reverse transcriptase (RT). Briefly: X-ray crystallography. The source holds these as a separate data set.

B1: U5-PBS DNA template/primer extended by ddT (dsDNA)
DNA 1: GGGACCTGAAAGCGAAAGGGAAAC
DNA 2: GTTTCCCTTTCGCTTTCAGGT
modifications: primer 3'-terminal 2',3'-dideoxy-T (incorporated from ddTTP)
For the molecule B1, the binding result in data set [1] is listed as “binds”.

B2: U5-PBS DNA template/primer, unextended (primer ends in G) (dsDNA)
DNA 1: GGGACCTGAAAGCGAAAGGGAAAC
DNA 2: GTTTCCCTTTCGCTTTCAGG
B2: the binding result in data set [2] is reported as “binds”.

The values are drawn from article PMC9271190.
